According to patent US20250144213A1 (UTC THERAPEUTICS SHANGHAI, published 2025):
Positions count from the first letter of the chain named.

Target: T1, CD123-Fc recombinant protein (human, UniProt P26951 19-305)
T1 construct: Soluble staining reagent; also called CD123-Fc protein; not shown: Fc part
T1 sequence (looked up): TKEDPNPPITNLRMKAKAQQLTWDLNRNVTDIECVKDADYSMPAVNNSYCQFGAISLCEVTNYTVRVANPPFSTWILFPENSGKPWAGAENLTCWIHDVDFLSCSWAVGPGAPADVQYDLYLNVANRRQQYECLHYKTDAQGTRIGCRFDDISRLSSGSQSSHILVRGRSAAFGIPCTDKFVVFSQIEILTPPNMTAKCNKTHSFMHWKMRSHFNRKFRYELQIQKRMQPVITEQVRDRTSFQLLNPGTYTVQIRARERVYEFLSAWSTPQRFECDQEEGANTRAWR
Assay: FACS staining of CAR-T cells with CD123-Fc recombinant protein (FIG. 28)

B1: anti-CD123 scFv-C1 (scFv)
scFv: QSALTQPASVSGSPGQSITISCTGTSSDIGAYNYVSWYQQHPGKAPKLIIYDVSHRPSGVSNRFSGSKSGNTASLTISGLQSEDEADYYCSSDTNNNTLVFGVGTKLTVLGGGGSGGGGSGGGGSEVHLVESGGGVVQPGRSLRLSCAASGFTFSSYGMHWVRQAPGKGLEWVAVIWYDGSNKYYADSVKGRFTISRDNSKNTLYLQMNSLRAEDTAVYYCARDRDGFFLPMYYFDYWGQGTLVTVSS
notes: also called C1 scFv
B1: binds.

B2: anti-CD123 scFv-C2 (scFv)
scFv: QSVVTQPPSVSAAPGQKVTISCSGSSSNIGNNYVSWYQQFPGTAPKLLIYDNNKRPSGIPDRFSGSKSGTSGTLGITGLQTGDEADYYCVTWDTSLSAGVFGGGTKLTVLGGGGSGGGGSGGGGSQITLKESGGGLVKPGGSLRLSCAASGFTFSNAWMSWVRQAPGKGLEWVGRIKSKTDGGTTDYAAPVKGRFTISRDDSKNTLYLQMNSLKTEDTAVYYCTTDPHGYYYGMDVWGQGTTVTVSS
notes: also called C2 scFv
B2: binds.

B3: anti-CD123 scFv-C3 (scFv)
scFv: AIQMTQSPSSLSASVGDRVTITCRASQGIGTYLAWFQQKPGKAPKSLIYAASNLQSGVPSKFSGSGSGTDFTLTISNLQPEDFATYYCQQYKGYPLTFGGGTKLEIKGGGGSGGGGSGGGGSQVQLVQSGAEVKKPGSSVKVSCKASGGTFSSYAISWVRQAPGQGLEWMGGIIPIFGTANYAQKFQGRVTITADESTSTAYMELSSLRSEDTAVYYCARDSGWFGPRYYFDYWGQGTLVTVSS
notes: also called C3 scFv
B3: binds.

B4: anti-CD123 scFv-C4 (scFv)
scFv: QSALTQPPSASGTPGQRVTISCSGSSSNIGSNYVNWYQQLPGTAPKLLIYRNNQRPSGVPDRFSGSKSGTSASLAISGLRSEDEADYYCAAWDDSLSGHGVFGTGTELTVLGGGGSGGGGSGGGGSQVQLVQSGPEVKKPGASVKVSCKASGYDFIRYYMNWVRQAPGQGPEWMGAIDPSDGDTTYGQKFQGRVTLTRDTFTSTVYMELSSLRSEDTAVYYCARDWELTNSYGLDVWGQGTTVTVSS
notes: also called C4 scFv
B4: binds.

B5: anti-CD123 scFv-C5 (scFv)
scFv: NFMLTQPHSVSESPGKTVTLSCTRSSGSIAGSYVQWYQQRPGSSPTTVIFQDNQRPSGVPDRFSGSIDKSSNSASLTISGLKTEDEADYYCQSYDSNNQVFGGGTKLTVLGGGGSGGGGSGGGGSEVHLVESGGGVVRPGGSLRLSCAASGFTFGDYGMSWVRQAPGKGLEWVSGINWNGGRTGYADSVKGRFTISRDNAKNSLYLQMNSLRAEDTALYYCARARGSGSYFGYMDVWGKGTTVTVSS
notes: also called C5 scFv; C5 CAR
B5: binds.

B6: anti-CD123 scFv-C6 (scFv)
scFv: SYELTQPPSVSVSPGQTARIPCSGADLGDQYVSWYQHQPGQSPLLVIYEDDKRPSGIPERFSGSNSGNTATLTISGTQAMDEADYYCQAWDGNAAIFGGGTKLTVLGGGGSGGGGSGGGGSQVQLVQSGGGSVQPGGSLRLSCAASGFTFTRYSMNWVRQAPGKGLEWVSYISSSSSTIYYADSVKGRFTISRDNAKNSLYLQMNSLRDEDTAVYYCARDGYGGNSDYYGMDVWGQGTTVTVSS
notes: also called C6 scFv
B6: binds.

B7: anti-CD123 scFv-C9 (scFv)
scFv: QSVLTQPPSASGTPGQRVTISCSGSNSNIENNYVYWYQHLPGTAPKRLIYQNNQRPSGVPDRFSGSKSGTSASLAISGLRSEDEADYYCSAWDDSLSAWVFGGGTELTVLGGGGSGGGGSGGGGSEVHLVESGGGLVQPGRSLRLSCTASGFTFGDYAMNWVRQAPGKGLEWVGFIRSKASGGTTDYAASVKGRFTISRDDSKSIAYLQMNSLKTEDTAVYYCTRALRGYSYGLFDYWGQGTLVTVSS
notes: also called C9 scFv
B7: binds.

B8: anti-CD123 scFv-C10 (scFv)
scFv: SYELTQPPSVSVAPGKTARITCGGNNIGSKSVHWYQQKPGQAPVLVVYDDSDRPSGIPERFSGSNSGNTATLTISRVEAGDEADYYCQVWDSSSDHWVFGGGTKLTVLGGGGSGGGGSGGGGSQVQLVQSGAEVKKPGSSVKVSCKASGGTFSSYAISWVRQAPGQGLEWMGGIIPIFGTANYAQKFQGRVTITADESTSTAYMELSSLRSEDTAVYYCAREKWGYYGDYYYGMDVWGQGTTVTVSS
notes: also called C10 scFv
B8: binds.

B9: anti-CD123 scFv-C11 (scFv)
scFv: QSVVTQPPSASGTPGQRVTISCSGSSSNIGSNYVYWYQQLPGTAPKLLIYRNNQRPSGVPDRFSGSKSGTSASLAISGLRSEDEADYYCAAWDDSLSGYVFGTGTKLTVLGGGGSGGGGSGGGGSEVQLVESGGGLVQPGRSLRLSCTASGFTFGDYAMSWVRQAPGKGLEWVGFIRSKAYGGTTEYAASVKGRFTISRDDSKSIAYLQMNSLKTEDTAVYYCTRDIGYYGSGSYSPFDYWGQGTLVTVSS
notes: also called C11 scFv; C11 CAR
B9: binds.

B10: anti-CD123 scFv-C29 (scFv)
scFv: B9 scFv with S2P, V4L, L107V, Q128H
notes: also called C29 scFv
B10: binds.

B11: anti-CD123 scFv-C13 (scFv)
scFv: DVVMTQTPLSLPVTLGQPASISCRSSQGLVFSDGVTYLNWFQQRPGQSPRRLIYKVSNRDSGVPDRFSGSGSGTDFTLKISRVEAEDVGIYYCMQGTHWPHTFGQGTKLEIKGGGGSGGGGSGGGGSEVQLVESGGGLVKPGGSLRLSCAASGFTFSSYSMNWVRQAPGKGLEWVAFISHDASKKFYADSVKGRFTLSRDNSKNTLYLEMNSLGAEDTALYYCGRDRNWGFSDFWGQGTLVTVSS
notes: also called C13 scFv
B11: binds.

B12: anti-CD123 scFv-C14 (scFv)
scFv: DIRMTQSPSSLSASVGDRVTITCQASQDITNYLNWYHQKPGKAPKLLIYDASNLETGVPSRFSGGGSGTDFTFTISSLQSEDIGTYYCQQYDDLPLTFGGGTKVEIKGGGGSGGGGSGGGGSQVQLQESGPGLVKPSETLSLTCTVSGGSISSSSHYWGWIRQPPGKGLEWIGSIYYSGSTYYNPSLKSRVTISVDTSKNQFSLKLSSVTAADTAVYYCARRVWVWPTYGMDVWGQGTTVTVSS
notes: also called C14 scFv
B12: binds.

B13: anti-CD123 scFv-C15 (scFv)
scFv: DIQLTQSPSTLSASVGDRVTISCRASQSISSWLAWYQHKPGKAPKLLIYKTSALEDGVPSRFSGSGSGTEFTLTISSLQPDDFATYFCLHYGSYTFGQGTKVDIKGGGGSGGGGSGGGGSEVQLVESGGGLVNPGGSLRLSCEASGFTFSDYYISWIRQAPGKGLEWISYISGSSTYTDFADSVKGRFTISRDNAKNTVFLQMNSLRAEDTAVYYCARDRRGRFDPWGQGTLVTVSS
notes: also called C15 scFv
B13: binds.

B14: anti-CD123 scFv-C16 (scFv)
scFv: QSVVTQPPSASGTPGQRVTISCSGSSSNIEGNTVSWYQQFPGAAPKLLIYSNSYRASGVPDRFSGSKSGTSASLAISELQSEDEADYYCSAWDDSLNGPVFGGGTELTVLGGGGSGGGGSGGGGSQVQLQESGGGLVQPGGSLRLSCAASGFTFSSYSMNWVRQAPGKGLEWVSYISSSSSTIYYADSVKGRFTISRDNAKNSLYLQMNSLRAEDTAVYYCARDIYGDWDYYYYGMDVWGQGTTVTVSS
notes: also called C16 scFv
B14: binds.

B15: anti-CD123 scFv-C18 (scFv)
scFv: QSALTQPASVSGSPGQSITISCTGTSSDVGGYNYVSWYQQHPGKAPKLMIYDVSNRPSGVSNRFSGSKSGNTASLTISGLQAEDEADYYCSSYTSSSTLFVFGTGTELTVLGGGGSGGGGSGGGGSQVQLQESGPGLVKPSQTLSLTCTVSGGSISSGDYYWSWIRQSPGKGLEWIGYIHSTGTTYYNPSLKSRLTISLDTSKNQFSLKLNSVTAADTAVYYCARGGVGTIFNYWGQGTLVTVSS
notes: also called C18 scFv
B15: binds.

B16: anti-CD123 scFv-C19 (scFv)
scFv: DIRMTQSPSSLSASVGDRVTITCRASQDIRHDLGWYQQKPGKAPSLLMYATSTLQSGVPSRFSGSGSGTHFTLTISSLKPEDSATYYCLQDGDYPLTFGGGTKLEIKGGGGSGGGGSGGGGSQVQLVQSGGGVVQPGRSLRLSCAASGFTFSSYGMHWVRQAPGKGLEWVAVISYDGSNKYYADSVKGRFTISRDNSKNTLYLQMNSLRAEDTAVYYCAKDPSLIQYYYYGMDVWGQGTMVTVSS
notes: also called C19 scFv
B16: binds.

B17: anti-CD123 scFv-C21 (scFv)
scFv: QSVLTQPPSASGTPGQRVTISCSGSSSNVGGNPVYWYRQVPTAAPKLLVYGHNQRPPRDPDRFSGSKSGTSASLAISGLRSEDEADYYCAAWDDSLSGWVFGGGTELTVLGGGGSGGGGSGGGGSEVQLVESGGGLVQPGRSLRLSCAASGFTFDDYAMHWVRQAPGKGLEWVSGISWNSGSIGYADSVKGRFTISRDNAKNSLYLQMNSLRAEDTALYYCAKGRYVDIVATINDAFDIWGQGTMVTVSS
notes: also called C21 scFv
B17: binds.

B18: anti-CD123 scFv-C23 (scFv)
scFv: DILMTQSPSSLSASVGDRVTITCQASQDISNYLNWYQQKPGKAPKLLIYDASNLETGVPSRFSGSGSGTGFSFTISSLQPEDFATYYCQQYGNLPLTFGGGTKLEIKGGGGSGGGGSGGGGSQVQLVQSGAEVKKPGASVKVSCKASGYTFTSYGISWVRQAPGQGLEWMGWISAYNGNTNYAQKLQGRVTMTTDTSTSTAYMELRSLRSDDTAVYYCARDRIAAAEVYYYYGMDVWGQGTTVTVSS
notes: also called C23 scFv
B18: binds.

B19: anti-CD123 scFv-C24 (scFv)
scFv: DIQMTQSPSSLSASVGDRVTITCRASQSISSYLNWYQQKPGKAPKLLIHAASSLQSGVPSKFSGSGSGTDFTLTISSLQPEDFATYYCLQYKTYPYTFGPGTKVEIKGGGGSGGGGSGGGGSQVQLVQSGAEVKKPGSSVKVSCKASGGTFSSYAISWVRQAPGQGLEWMGGIIPIFGTANYAQKFQGRVTITADESTSTAYMELSSLRSEDTAVYYCARDSPSGSTNYYYYYMDVWGKGTTVTVSS
notes: also called C24 scFv
B19: binds.

B20: anti-CD123 scFv-C26 (scFv)
scFv: QSVLTQPPSASGTPGQRVTISCSGSRSNIGSNTVSWYQQFPGTAPKLLIYLNNQRPSGVPDRFSGSKSGTSASLAISGLQSEDEAEYYCATWDDDLNGVFGGGTKLTVLGGGGSGGGGSGGGGSEVQLVESGGGLVQPGGSLRLSCAASGFTLSNFEMNWVRQAPGRGLEWVSYISATTSATSYADSVKGRFTISRDNAKNSLYLQMNSLRAEDTAVYYCARVRDGYNFGYYYYYMDVWGKGTTVTVSS
notes: also called C26 scFv
B20: binds.
